In article PMC10164081 (Structure (London, England : 1993), 2023):
Blank lines part the entries; values can stand above or below the binder they belong to. Where no end group is shown, it is not given here.

Experiments:
[1] = target: Gαolf/13 SwII chimeric sensor (human); assay: cell-based or functional assay
[2] = target: Gαolf/i1 SwII chimeric sensor (human); assay: cell-based or functional assay
[3] = target: T1, purified Ric-8A (rat, UniProt Q80ZG1 1-530); assay: differential scanning fluorimetry
T1 sequence (looked up): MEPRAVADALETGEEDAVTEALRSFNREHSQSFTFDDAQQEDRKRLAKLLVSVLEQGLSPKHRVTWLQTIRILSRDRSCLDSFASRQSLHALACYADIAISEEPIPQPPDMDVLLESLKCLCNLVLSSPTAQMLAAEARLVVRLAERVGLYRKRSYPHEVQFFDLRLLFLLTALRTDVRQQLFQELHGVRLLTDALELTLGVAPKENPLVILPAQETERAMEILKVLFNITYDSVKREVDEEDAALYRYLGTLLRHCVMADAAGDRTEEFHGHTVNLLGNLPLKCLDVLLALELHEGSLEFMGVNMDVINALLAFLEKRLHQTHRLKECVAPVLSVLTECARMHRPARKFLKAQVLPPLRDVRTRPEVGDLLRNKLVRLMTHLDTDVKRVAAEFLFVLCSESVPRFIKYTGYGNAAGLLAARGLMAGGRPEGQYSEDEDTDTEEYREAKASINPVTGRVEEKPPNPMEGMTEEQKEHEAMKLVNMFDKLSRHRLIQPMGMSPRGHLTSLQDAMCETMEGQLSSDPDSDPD

- folding of the Switch II chimeric Gαolf-RLuc sensor (luminescence) by Ric-8B [1]: 50 % decrease
- folding of the Switch II chimeric Gαolf-RLuc sensor (luminescence) by Ric-8B [2]: 88 % of Gαolf
B1: phosphorylated Ric-8B (natural protein, mouse, UniProt Q80XE1-1 1-560, looked up)
chain: MDEERALYIVRAGEAGAIERVLRDYSDKHRATFKFESADEDKRKKLCEGIFKVLVKEVPTTCQVSCLEVLRILSRDKKILVPVTTKENMQILLRLAKLHESDDSLEKVSEFPVIVESLKCLCNIVFNSQMAQQLSLELNLAAKLCNLLRKCKDRKFINDIKCFDLRLLFVLSLLHTDIRSQLRYELQGLPLLTQILESAFSIKWTDEYESAIDHNGPPLSPQETDCAIEALKALFNVTVDSWKVHKESDSHQFRVMAAVLRHCLLIVGPTEDKTEELHSNAVNLLSNVPVSCLDVLICPLTHEETAQEAATLDELPSDKTTEKDTALKNSTMVYNGMNMEAIHVLLNFMEKRIDKGSSYREGLTPVLSLLTECSRAHRNIRKFLKDQVLPPLRDVTNRPEVGSTVRNKLVRLMTHVDLGVKQIAAEFLFVLCKERVDSLLKYTGYGNAAGLLAARGLLAGGRGDNWYSEDEDTDTEEYKNAKPNINLITGHLEEPMPNPIDEMTEEQKEYEAMKLVNMLDKLSREELLKPMGLKPDGTITPLEEALSQYSVIEETSSDTD
modifications: phosphoserine at 468, phosphothreonine at 473, and additional positions (Table S1)

B2: Gα13 C-term amidated peptide (peptide)
peptide: RDVKDTILHDNLKQLMLQ-NH2
- maximal thermal shift (ΔTm) [3]: 3.6 °C
